{"source": "patent US20110268668A1", "about": "“PROCESS FOR NEBULIZING AQUEOUS COMPOSITIONS CONTAINING HIGHLY CONCENTRATED INSULIN” (priority 1997, published 2011)", "molecules": {"B1": {"name": "manganese superoxide dismutase (protein, UniProt P04179 25-222, looked up)", "Superoxide dismutase [Mn], …": "KHSLPDLPYDYGALEPHINAQIMQLHHSKHHAAYVNNLNVTEEKYQEALAKGDVTAQIALQPALKFNGGGHINHSIFWTNLSPNGGGEPKGELLEAIKRDFGSFDKFKEKLTAASVGVQGSGWGWLGFNKERGHLQIAACPNQDPLQGTTGLIPLLGIDVWEHAYYLQYKNVRPDYLKAIWNVINWENVTERYMACKK", "notes": "3.3 mg/mL of manganese superoxide dismutase (MnSOD) in phosphate-buffered saline"}}, "key": {"[1]": {"tested_on": "blood glucose level", "assay": "In vivo test in dog: blood glucose after inhaled highly concentrated insulin solution from RESPIMAT", "details": "anesthetized dog; six puffs of highly concentrated insulin solution from RESPIMAT; FIG. 5", "protocol": "The insulin was administered to the dog anesthetized with pentobarbital after previously receiving basic sedation. The animal was intubated and ventilated as before. A total of six puffs of insulin solution were delivered from the RESPIMAT® device. Each puff was administered at the start of an inward breath. Between the breathing in phase and the breathing out phase there was a gap of 5 seconds. Before the next administration of insulin, two breath cycles were left with no intervention. Blood was taken one hour before administration, at the same time as administration and at various times thereafter over […]. The blood glucose level was measured in the fresh blood using the method of Trasch, Koller, and Tritscher (Klein. Chem. 30; 969 [1984]) using a REFLETRON® device made by Boehringer Mannheim."}, "[2]": {"assay": "Viscosity of aerosol preparation (Ostwald viscosimeter)", "format": "physicochemical", "details": "aerosol preparation with about 35 mg/mL of insulin, pH 7.4", "protocol": "Higher viscosity solutions of macromolecules with a viscosity of up to 1100×10^−6 Pa·s are preferred. With such solutions, an inhalable proportion of droplets containing an active substance of about 60% is obtained. The limiting viscosity numbers given were detected using an Ostwald viscosimeter using the method known from the literature. For comparison, the viscosity of water is 894×10^−6 Pa·s (measured at 25° C.).\nThe aerosol preparation thus produced has a concentration of about 35 mg/mL of insulin, the viscosity of the solution being about 1020×10^−6 Pa·s."}, "[3]": {"assay": "In vitro RESPIMAT nebulization, trap recovery of interferon omega by ELISA", "text": "(§1) The effectiveness of a nebulizer can be tested using an in vitro system in which a protein solution is nebulized and the spray mist is caught in a so-called “trap” (see FIG. 1). The activity of the protein in the aerosol reservoir (a) is compared with its activity in the trapped liquid (b), e.g., by means of an immunoassay or using an assay for the biological effectiveness of the protein. This experiment makes it possible to evaluate the degree of destruction of the protein by the nebulizing process. A second parameter of the aerosol quality is the so-called inhalable proportion, which is defined here as the proportion of the mist droplets with a […] median aerodynamic diameter (MMAD) of less than 5.8 μm. The inhalable proportion can be measured using an “Andersen Impactor”. For good protein absorption it is important not only to achieve nebulization without any substantial loss of activity but also to generate an aerosol with a good inhalable proportion (about 60%). […] The effectiveness of a nebulization device can also be tested in an in vivo system; in this case factors such as susceptibility to lung proteases come into play. […] Blood samples arc taken at suitable time intervals and the protein level in the plasma is then measured by immunological or biological methods.\n(§2) The device was activated and a volume of about 12.9 μL, (one puff) was nebulized in an air current of 28 l/min. […] Interferon omega was measured in the reservoir solution and in the solution caught in the trap by immunological methods, using an ELISA, and biologically, by inhibiting the destruction of encephalo-myocarditis virus infected A549 cells. […] However, additional biological measurements are very important as they are a particularly sensitive and therapeutically relevant method of quantifying protein destruction.\n(§3) In three experiments, 84%, 77%, and 98%, of the immunologically identifiable interferon, based on the starting solution, were found in the trap solution (b). […] The proportion of particles less than 5.8 μm in size (“inhalable proportion”) was measured. […]"}, "[4]": {"tested_on": "neopterin", "assay": "In vivo test in dog: serum neopterin after interferon omega by RESPIMAT inhalation vs intravenous", "protocol": "Interferon omega was administered by inhalation and intravenous route in separate experiments on the same dog. The blood levels of interferon were measured immunologically and biologically at different times. In addition, the neopterin level in the blood was measured. Neopterin is a marker for immune activation; it is released by macrophages after interferon stimulation [see Fuchs et al., “Neopterin, Biochemistry and Clinical Use as a Marker For Cellular Immune Reactions”, Int. Arch. Allergy Appl. Immunol. 101: 1-6 (1993)]. Measurement of the neopterin level serves to quantify interferon activity.\nThe administration of interferon to the dog was carried out under pentobarbital anesthetic after previous basic sedation. The animal was intubated and subjected to artificial ventilation (volume-controlled respiration: volume per minute 4 L/min, rate 10 breaths/min). A total of 20 puffs were delivered by the RESPIMAT® device. Each puff was given at the start of an inward breath. After the breathing in phase there were five seconds gap before breathing out. […] Interferon omega was measured in heparin plasma by immunological methods using an ELISA and by biological methods by the inhibition of the destruction of encephalo-myocarditis virus infected A549 cells. Serum neopterin was determined by immunology. […]"}, "[5]": {"tested_on": "encephalo-myocarditis virus infected A549 cells", "assay": "In vitro RESPIMAT nebulization, trap recovery of interferon omega by biological assay (inhibiting destruction of virus-infected cells)", "format": "cell-based", "details": "same solutions", "text": "as §1, §2, §3"}, "[6]": {"assay": "Inhalable proportion of RESPIMAT spray mist in Andersen impactor", "format": "physicochemical", "details": "immunological measurements", "text": "as §1, §3\nIn this experiment, the reservoir (a) of the RESPIMAT® device was filled with 3.3 mg/mL of manganese superoxide dismutase (MnSOD) in phosphate-buffered saline (PBS). […] The precise amount nebulized was determined gravimetrically (measurements in three succeeding tests: 12.8, 13.7, and 14.3 mg). […] MnSOD was determined in the reservoir solution and in the solution caught in the trap, immunologically using an ELISA and enzymatically by the reduction in the quantity of superoxide after a xanthine/xanthine oxidase reaction. […]"}, "[7]": {"assay": "In vitro RESPIMAT nebulization, MnSOD enzymatic activity (reduction of superoxide after xanthine/xanthine oxidase reaction)", "format": "biochemical", "details": "3.3 mg/mL MnSOD in PBS", "protocol": "In this experiment, the reservoir (a) of the RESPIMAT® device was filled with 3.3 mg/mL of manganese superoxide dismutase (MnSOD) in phosphate-buffered saline (PBS). The device was operated and a volume of about 13 μL (one puff) was nebulized in an air current of 28 L/min. The precise amount nebulized was determined gravimetrically (measurements in three succeeding tests: 12.8, 13.7, and 14.3 mg). The nebulized solution was caught in a trap (b). This trap contained 20 mL of PBS. In addition, 2 mL of 5% bovine serum albumin was added to stabilize proteins in the trap. MnSOD was determined in the reservoir solution and in the solution caught in the trap, immunologically using an ELISA and enzymatically by the reduction in the quantity of superoxide after a xanthine/xanthine oxidase reaction. In three tests, 78%, 89%, and 83% of the immunologically identifiable MnSOD of the nebulized solution were measured in the trapped solution (b). […] The inhalable proportion (immunological measurements) was 61%."}, "[8]": {"assay": "In vitro RESPIMAT nebulization, trap recovery of MnSOD by ELISA", "details": "3.3 mg/mL MnSOD in PBS, one puff, 28 L/min, three tests", "text": "The effectiveness of a nebulizer can be tested using an in vitro system in which a protein solution is nebulized and the spray mist is caught in a so-called “trap” (see FIG. 1). The activity of the protein in the aerosol reservoir (a) is compared with its activity in the trapped liquid (b), e.g., by means of an immunoassay or using an assay for the biological effectiveness of the protein. This experiment makes it possible to evaluate the degree of destruction of the protein by the nebulizing process. A second parameter of the aerosol quality is the so-called inhalable proportion, which is defined here as the proportion of the mist droplets with a […] median aerodynamic diameter (MMAD) of less than 5.8 μm. The inhalable proportion can be measured using an “Andersen Impactor”. […] Blood samples arc taken at suitable time intervals and the protein level in the plasma is then measured by immunological or biological methods.\nIn this experiment, the reservoir (a) of the RESPIMAT® device was filled with 3.3 mg/mL of manganese superoxide dismutase (MnSOD) in phosphate-buffered saline (PBS). […] The precise amount nebulized was determined gravimetrically (measurements in three succeeding tests: 12.8, 13.7, and 14.3 mg). […] In three tests, 78%, 89%, and 83% of the immunologically identifiable MnSOD of the nebulized solution were measured in the trapped solution (b). […]"}, "[9]": {"details": "concentrated interferon omega solution 53 mg/mL, four tests"}}, "note": "Values joined by “and” are separate entries in the source; they are usually repeats but may differ in a detail not shown here. Identical values can stand only once."}
{"molecule": "insulin", "values": [{"measurement": "blood glucose level after administration of insulin by inhalation", "setting": "[1]", "value": "lowering of blood glucose level"}, {"measurement": "viscosity of the solution", "setting": "[2]", "value": "about 1020 ×10^−6 Pa·s"}]}
{"molecule": "interferon omega", "values": [{"measurement": "immunologically identifiable interferon found in the trap solution, based on the starting solution", "setting": "[3]; 5 mg/mL formulation with additional human serum albumin (0.5%), three tests", "value": "79% and 83%"}, {"measurement": "immunologically identifiable interferon found in the trap solution, based on the starting solution", "setting": "[3]; 5 mg/mL interferon omega in 50 mM trisodium citrate, 150 mM NaCl, pH 5.5, one puff, air current 28 l/min, ELISA, three experiments", "value": "84% and 77% and 98%"}, {"measurement": "immunologically identifiable interferon found in the trapped solution, based on the starting solution", "setting": "[3]; [9]", "value": "100% and 60% and 68% and 72%"}, {"measurement": "neopterin levels after inhalation compared with intravenous administration of 0.32 mg of interferon", "setting": "[4]; 20 puffs RESPIMAT, 5 mg/mL (about 1.28 mg) vs 0.32 mg i.v., FIG. 3", "value": "significantly higher and longer lasting levels"}, {"measurement": "serum neopterin level after administration by inhalation", "setting": "[4]; 20 puffs from RESPIMAT, 5 mg/mL solution (about 1.28 mg)", "value": "very high serum neopterin level"}, {"measurement": "biologically active interferon in the trapped solution", "setting": "[5]; 5 mg/mL formulation with additional human serum albumin (0.5%)", "value": "60% and 54% and 66%"}, {"measurement": "recovery of the biologically identifiable interferon in the trapped solution", "setting": "[5]; 5 mg/mL interferon omega in 50 mM trisodium citrate, 150 mM NaCl, pH 5.5, three experiments", "value": "54% and 47% and 81%"}, {"measurement": "recovery of the biologically identifiable interferon in the trapped solution", "setting": "[5]; [9]", "value": "95% and 98% and 61% and 83%"}, {"measurement": "inhalable proportion (particles less than 5.8 μm)", "setting": "[6]; 5 mg/mL interferon omega solution, Andersen impactor, 28 l/min", "value": 70, "unit": "%"}, {"measurement": "inhalable proportion", "setting": "[6]; interferon omega formulation with additional human serum albumin (0.5%)", "value": 67, "unit": "%"}]}
{"molecule": "B1", "values": [{"measurement": "loss in enzymatic activity after nebulization", "setting": "[7]", "value": "no measurable loss"}, {"measurement": "immunologically identifiable MnSOD of the nebulized solution measured in the trapped solution", "setting": "[8]", "value": "78% and 89% and 83%"}, {"measurement": "inhalable proportion", "setting": "[6]; 3.3 mg/mL MnSOD in PBS", "value": 61, "unit": "%"}]}
